Data reported in paper PMC5226681.

Columns and labels:
[1] = TZM-bl pseudovirus neutralization, plateau; details: control: CAP45 pseudovirus grown normally in 293T
[2] = TZM-bl pseudovirus neutralization; details: glycan lost; control: wild-type CAP45

Row | Substance | other: neutralisation sensitivity ([1]; glycan changed form) | other: neutralisation sensitivity [2] | also measured
1 | HIV-1 envelope glycoprotein (Env, gp160) CAP45: 293S GnTI(-/-) cells | no change |  | 
2 | HIV-1 envelope glycoprotein (Env, gp160) CAP45: N230D |  | no change | 
3 | HIV-1 envelope glycoprotein (Env, gp160) CAP45: N276A |  | abolishes | 
4 | HIV-1 envelope glycoprotein (Env, gp160) CAP45: N276D |  | decreases | 
5 | HIV-1 envelope glycoprotein (Env, gp160) CAP45: N611D |  | decreases | 
6 | HIV-1 envelope glycoprotein (Env, gp160) CAP45: benzyl 2-acetamido-2-deoxy-α-D-galactopyranoside |  |  | other: neutralisation sensitivity ([1]; glycan lost): no change
7 | HIV-1 envelope glycoprotein (Env, gp160) CAP45: kifunensine | no change |  | 
8 | HIV-1 envelope glycoprotein (Env, gp160) CAP45: swainsonine | no change |  | 
